# T1: HK (Homo sapiens, UniProt P01042)
# T1 sequence (P01042 19-644): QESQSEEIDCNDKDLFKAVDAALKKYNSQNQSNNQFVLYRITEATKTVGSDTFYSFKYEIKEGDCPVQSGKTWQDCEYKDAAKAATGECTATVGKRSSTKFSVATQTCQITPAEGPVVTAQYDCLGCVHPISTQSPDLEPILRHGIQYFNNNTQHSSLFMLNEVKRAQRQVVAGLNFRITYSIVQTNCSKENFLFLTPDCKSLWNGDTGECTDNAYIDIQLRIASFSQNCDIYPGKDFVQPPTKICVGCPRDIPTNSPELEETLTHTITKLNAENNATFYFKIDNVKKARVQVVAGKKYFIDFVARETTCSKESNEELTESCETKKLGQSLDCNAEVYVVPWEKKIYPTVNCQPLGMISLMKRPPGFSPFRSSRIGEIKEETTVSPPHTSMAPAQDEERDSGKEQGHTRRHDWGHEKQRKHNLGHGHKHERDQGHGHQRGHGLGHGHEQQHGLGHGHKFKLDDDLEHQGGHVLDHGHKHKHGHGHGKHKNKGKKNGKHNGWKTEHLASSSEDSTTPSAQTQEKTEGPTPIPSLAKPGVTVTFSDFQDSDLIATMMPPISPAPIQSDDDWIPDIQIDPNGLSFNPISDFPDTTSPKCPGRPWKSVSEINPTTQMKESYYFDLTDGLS
# T2: recombinant gC1q-R (Homo sapiens, UniProt Q07021)
# T2 construct: made in house
# T2 sequence (Q07021 74-282): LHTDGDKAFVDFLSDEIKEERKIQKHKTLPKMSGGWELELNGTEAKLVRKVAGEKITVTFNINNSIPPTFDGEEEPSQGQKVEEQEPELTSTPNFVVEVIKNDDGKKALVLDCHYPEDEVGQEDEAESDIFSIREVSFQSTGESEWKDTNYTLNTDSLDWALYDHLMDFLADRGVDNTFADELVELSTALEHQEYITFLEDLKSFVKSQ
# B1: HK: high molecular weight kininogen, 115 kDa non-enzymatic plasma glycoprotein (protein, UniProt P01042 19-644, looked up)
# Kininogen-1: T1 sequence (P01042 19-644)
# Legend:
# [1] = biological target: T1, HK; test: solid phase ELISA, gC1q-R peptides supporting HK binding
# Text: By peptide mapping and antibody inhibition studies, we have previously identified a binding site for HK in a gC1q-R domain contained within residues 204-218. […] Thus a possible binding site(s) elsewhere in the molecule was sought. Several peptides were synthesized that correspond with the gC1q-R domains of very high negative charge and, which based on their location in the crystal structure on the solution-face, are hypothesized to interact with solution-phase ligands. […] HK was bound to wells coated with peptide 190-202 and was detected by a monoclonal antibody to HK. […] These antibodies have now been isotyped to be IgG1k.
# [2] = system: endothelial cells; conditions: cited from earlier work
# [3] = biological target: T2, recombinant gC1q-R; test: competitive binding ELISA, biotinylated gC1q-R to coated HK peptide
# Method: FIG. 5. Panel A: Solution phase HKH20 inhibits binding of gC1q-R to microtiter bound HKH. ELISA wells were first coated with 50 μg/ml peptide HKH20 (SEQ ID NO:11). The wells were then incubated either with biotinylated gC1q-R (5 μg/ml) alone (lane 2) or in the presence of 10 μg/ml (lane 3) or 50 μg/ml (lane 4) HKH20. […] was coated with biotinylated gC1q-R (1 μg/ml) and detected with alkaline-phosphatase conjugated NeutrAvidin. The figure is a representative of two experiments done in duplicate. […] Panel B: HKH20 and histidine-rich fragments bind to gC1q-R. Binding of gC1q-R to HKH-20 (SEQ ID NO:11), HKH-10-1 (residues 479-488; SEQ ID NO:13), HKH-10-2 (residues 484-493; SEQ ID NO:14), and HKH-10-3 (residues 489-498; SEQ ID NO:15). The negative control is binding to BSA.
# As discussed earlier, gC1q-R binds HK through a site on domain 5 that is located on the light chain of HK. […] This experiment was performed by competitive binding studies in which ELISA plate wells coated with 100 μg/ml HK peptide were incubated with biotinylated gC1q-R (1 μg/ml) in the presence or absence of increasing concentrations of peptide as a solution phase competitor. […] (FIG. 5B)
# [4] = biological target: HUVECs; conditions: zinc-dependent; read-out: Kd of binding to HUVECs; cited from earlier work
molecule,measurement,setting,value
"EDEVGQEDEAESD (listed as Homo sapiens) [peptide 190-202, gC1q-R 190-202]",capture of HK from diluted plasma on peptide-coated wells,"[1]; plasma 1:10 in TBS, detected by monoclonal antibody to HK",HK was bound
same,ability to support HK binding,[1]; solid phase ELISA,strongly supported binding of HK
"HKHGHGHGKHKNKGKKNGKH (listed as Homo sapiens) [HKH20, HK 479-498, domain 5]",inhibition of the interaction of HK with intact endothelial cells,[2],inhibit
same,inhibition of gC1q-R binding to coated HK peptide by solution phase peptide,[3]; 50 μg/ml HKH20,totally inhibited
same,binding of gC1q-R to the peptide,[3]; ELISA wells coated with peptide,bound strongly
B1,Kd,[4],40 to 50 nM

# From patent US8883153B2, “Methods for preventing and treating angioedema” (The Research for The State University of New York, priority 2009, dated 2014)
